The record followed here is the Immune Epitope Database (IEDB).

Assay [1] concerns the target HLA-B*48:01. Kind of assay: IEDB peptide-MHC binding, purified MHC/competitive/fluorescence; filed as Kd, often an IC50 or EC50 that approximates it; ≥ and ≤ were set here for values at or beyond the usual limits of such assays. To be noted: source organism: Vibrio vulnificus YJ016.
Assay [2] deals with HLA-A*01:01. Description: IEDB peptide-MHC binding, purified MHC/direct/fluorescence; filed as Kd, often an IC50 or EC50 that approximates it; ≥ and ≤ were set here for values at or beyond the usual limits of such assays.
Assay [3] concerns the target HLA-A*11:01. The assay is described as above.
For assay [4], the target named is HLA-A*26:03. The description is as above. To be noted: source organism: Hepatovirus A.
The target of assay [5] is HLA-A*31:01. The description is as above.
The target of assay [6] is HLA-B*07:02. Described as above.
For assay [7], the target named is HLA-B*15:01. The description is as above.
The target of assay [8] is HLA-B*15:02. The description is as above. To be noted: source organism: Hepatovirus A.
In assay [9] the target is HLA-B*27:05. Described as above.
Assay [10] deals with HLA-B*35:01. The assay is described as above. To be noted: source organism: Hepatovirus A.
Assay [11] concerns the target HLA-B*46:01. The description is as above. To be noted: source organism: Hepatovirus A.
Assay [12] concerns the target HLA-B*48:01. Described as above. To be noted: source organism: Hepatovirus A.
In assay [13] the target is HLA-B*57:01. Described as above. To be noted: source organism: Hepatovirus A.
Assay [14] addresses HLA-B*58:01. The description is as above.
Assay [15] deals with HLA-C*06:02. Described as above.
The target of assay [16] is HLA-C*12:03. The description is as above. To be noted: source organism: Hepatovirus A.
Assay [17] addresses HLA-A*02:01. Description: IEDB peptide-MHC binding, purified MHC/competitive/fluorescence; filed as Kd, often an IC50 or EC50 that approximates it; ≥ and ≤ were set here for values at or beyond the usual limits of such assays. To be noted: source organism: Hepatovirus A.
Assay [18] concerns the target HLA-A*02:03. The assay is described as above. To be noted: source organism: Hepatovirus A.
The target of assay [19] is HLA-A*26:02. The description is as above. To be noted: source organism: Hepatovirus A.
Assay [20] deals with HLA-A*30:01. Described as above. To be noted: source organism: Hepatovirus A.
For assay [21], the target named is HLA-A*68:02. The assay is described as above. To be noted: source organism: Hepatovirus A.
For assay [22], the target named is HLA-B*08:01. The description is as above. To be noted: source organism: Hepatovirus A.
The target in assay [23] is HLA-B*15:09. The description is as above. To be noted: source organism: Hepatovirus A.
Assay [24] deals with HLA-B*15:17. The assay is described as above. To be noted: source organism: Hepatovirus A.
Assay [25] concerns the target HLA-B*39:01. Described as above. To be noted: source organism: Hepatovirus A.
In assay [26] the target is HLA-A*02:01. Kind of assay: IEDB peptide-MHC binding, purified MHC/direct/fluorescence; filed as Kd, often an IC50 or EC50 that approximates it; ≥ and ≤ were set here for values at or beyond the usual limits of such assays. To be noted: source organism: Escherichia coli.
The target in assay [27] is HLA-A*03:01. Described as above. To be noted: source organism: Escherichia coli.
Assay [28] concerns the target HLA-A*26:01. The assay is described as above. To be noted: source organism: Escherichia coli.
For assay [29], the target named is HLA-A*30:01. Described as above. To be noted: source organism: Escherichia coli.
Assay [30] deals with HLA-A*69:01. The description is as above. To be noted: source organism: Escherichia coli.
Assay [31] concerns the target HLA-B*08:01. The description is as above. To be noted: source organism: Escherichia coli.
For assay [32], the target named is HLA-B*40:01. Described as above. To be noted: source organism: Escherichia coli.
Assay [33] addresses HLA-B*73:01. Description: IEDB peptide-MHC binding, purified MHC/competitive/fluorescence; filed as Kd, often an IC50 or EC50 that approximates it; ≥ and ≤ were set here for values at or beyond the usual limits of such assays. To be noted: source organism: Escherichia coli str. K-12 substr. MG1655.
Assay [34] addresses HLA-B*51:01. Kind of assay: IEDB peptide-MHC binding, purified MHC/direct/fluorescence; filed as Kd, often an IC50 or EC50 that approximates it; ≥ and ≤ were set here for values at or beyond the usual limits of such assays. To be noted: source organism: Salmonella enterica.
Assay [35] addresses HLA-C*15:02. Described as above. To be noted: source organism: Salmonella enterica subsp. enterica serovar Typhi str. CT18.
The target in assay [36] is HLA-B*15:42. Description: IEDB peptide-MHC binding, purified MHC/competitive/fluorescence; filed as Kd, often an IC50 or EC50 that approximates it; ≥ and ≤ were set here for values at or beyond the usual limits of such assays. To be noted: source organism: Salmonella enterica subsp. enterica serovar Typhi.
For assay [37], the target named is HLA-B*27:20. Described as above. To be noted: source organism: Salmonella enterica subsp. enterica serovar Typhi.
The target in assay [38] is HLA-B*45:06. The description is as above. To be noted: source organism: Salmonella enterica subsp. enterica serovar Typhi.
Assay [39] concerns the target HLA-B*46:01. The description is as above. To be noted: source organism: Salmonella enterica subsp. enterica serovar Typhi.
Assay [40] deals with HLA-B*83:01. Described as above. To be noted: source organism: Salmonella enterica subsp. enterica serovar Typhi.
Assay [41] concerns the target HLA-C*14:02. The assay is described as above. To be noted: source organism: Salmonella enterica subsp. enterica serovar Typhi.
Where [42] appears, read: source organism: Escherichia coli.

As usually defined, the Kd is the concentration at which binding is half-saturated. Low values mean higher affinity, high ones lower affinity. On to DEHPWQPML, for which the Kd in assay [1] was at least 20000 nM.
Turning to YMYAVSGAL, the dissociation constant (Kd) in assay [2] (source organism: Hepatovirus A) was at least 20000 nM; in assay [3] (source organism: Hepatovirus A) it was at least 20000 nM; in [4], at least 20000 nM; in assay [5] (source organism: Hepatovirus A), at least 20000 nM; in assay [6] (source organism: Hepatovirus A), at least 20000 nM; in assay [7] (source organism: Hepatovirus A), 11.6 nM. Further, the dissociation constant (Kd) in assay [8] was 5 nM; in [9] (source organism: Hepatovirus A), at least 20000 nM; in assay [10] it was 449 nM; in assay [11], 1770 nM; in [12], 15.6 nM; in assay [13], at least 20000 nM. Moreover, the equilibrium dissociation constant (Kd) in assay [14] (source organism: Hepatovirus A) is at least 20000 nM; in assay [15] (source organism: Hepatovirus A), at least 20000 nM; in [16] it was 231 nM; in [17] it was 3.7 nM; in assay [18] it was 1.6 nM; in [19], 4580 nM. Moreover, the Kd in assay [20] was 4140 nM; in [21] it was 2120 nM; in [22], 830 nM; in [23], 322 nM; in [24], 181 nM; in assay [25], 1.5 nM.
Take RRRIGEIFK: the Kd was at least 20000 nM in assay [2] (setting [42]); at least 20000 nM in assay [26]; at least 20000 nM in [27]; at least 20000 nM in assay [3] (setting [42]); at least 20000 nM in [28]; 5.86 nM in [29]. Also, the dissociation constant (Kd) is at least 20000 nM in [5] (setting [42]); at least 20000 nM in assay [30]; at least 20000 nM in [6] (setting [42]); at least 20000 nM in assay [31]; at least 20000 nM in assay [7] (setting [42]); 64.2 nM in [9] (setting [42]). Moreover, the dissociation constant Kd in assay [32], in assay [14] (setting [42]) and in assay [33] was at least 20000 nM in each case.
YLRNAGAAM: the Kd in assay [6] (source organism: Salmonella enterica) is 1.3 nM; in assay [7] (source organism: Salmonella enterica subsp. enterica serovar Typhimurium str. LT2) it was 31 nM; in [34] it was at least 20000 nM; in assay [15] (source organism: Salmonella enterica subsp. enterica serovar Typhi str. CT18) it was 3620 nM; in assay [35], 3590 nM; in assay [36], at least 5000 nM. The dissociation constant (Kd) is 186 nM in [37]; at least 5000 nM in assay [38]; 54.7 nM in assay [39]; at least 5000 nM in assay [40]; 3.6 nM in [41].
